# From patent US6342477B1, “Remedies for thrombocytopenia” (Chugai Seiyaku Kabushiki Kaisha, priority 1996, dated 2002)
# B1: human PTH(1-84) (protein, UniProt P01270 32-115, looked up)
# Parathyroid hormone: SVSEIQLMHNLGKHLNSMERVEWLRKKLQDVHNFVALGAPLAPRDAGSQRPRKKEDNVLVESHEKSLGEADKADVNVLTKAKSQ
# modifications: Parathyroid hormone
# Assays:
# Assay type in all cases: in vivo
# [1] = system: C57Bl/6N mice; test: Effectiveness of PTH derivative, daily administration to mouse (peripheral platelet count); conditions: 200 μg/kg subcutaneously once a day for six days, blood 24 h after final administration
# Procedure: Ten-week old male C57Bl/6N mice as purchased from Japan Charles River Co., Ltd. were used in the experiment.
# Drug solutions to be administered were prepared basically from human PTH(1-84) and human PTH(1-34) by the same procedure as in Example 1 to give a drug concentration of 20 μg/mL.
# Eighteen mice were divided into three groups, which were administered subcutaneously with the two drug solutions and a control (citrate buffer) for six days on a once-a-day basis in a volume of 10 mL/kg. […] The administration was initiated at 10 a.m.
# After 24 h of the final administration, a blood sample was withdrawn from each mouse through the orbital vein. Peripheral corpuscle counts were obtained with an automatic corpuscle counter F-800 (TOA MEDICAL ELECTRONICS CO., LTD)
# [2] = system: C57Bl/6N mice; test: Test for single-dose administration to mouse (peripheral platelet count); conditions: single dose 10 μg/kg through the tail vein
# Procedure: Nine-week old male C57Bl/6N mice as purchased from Japan Charles River Co. Ltd. were used in the experiment. (Preparation of Drug Solutions to be Administered) Human PTH(1-84) was dissolved in a citrate buffer (pH-5; containing 0.05% of Tween 80) at final concentrations of 1, 0.2 and 0.04 μg/mL so as to prepare the drug solutions to be administered.
# Each of the thus prepared drug solutions and a control (citrate buffer) was administered to 15 mice through the tail vein in a volume of 10 mL/kg. […] The administration was initiated at 10 a.m.
# After 3, 6 and 9 hours of the administration, five mice were picked up at random from each group of animals and blood samples were withdrawn through the orbital vein. At 10 a.m. on the same day, separate blood samples were taken from untreated mice (four in number) to obtain the pre-administration value. Peripheral corpuscle counts were obtained with an automatic corpuscle counter F-800 (TOA MEDICAL ELECTRONICS CO., LTD.)
# [3] = system: C57Bl/6N mice; test: Test for daily administration to mouse (peripheral platelet count); conditions: for platelet count: day 5
# Procedure: Nine-week old male C57Bl/6N mice as purchased from Japan Charles River Co., Ltd. were used in the experiment.
# Drug solutions to be administered were prepared basically by the same procedure as in Example 1 to give drug concentrations of […].
# The mice under test were divided into four groups, which were administered subcutaneously with the three drug solutions and a control (citrate buffer) once a day in a volume of 10 mL/kg. […] The administration was initiated at 10 a.m.
# (Blood Sampling and Counting Peripheral Corpuscles) On days 5, 7 and 9 after the start of administration, five or six mice were picked up at random from each group of animals and blood samples were withdrawn through the orbital vein. The sampling of blood was timed to occur 24 h of the final administration. Separate blood samples were taken from untreated mice (five in number) to obtain the value for normal mouse. Peripheral corpuscle counts were obtained with an automatic corpuscle counter F-800 (TOA MEDICAL ELECTRONICS CO., LTD.)
# [4] = system: Japanese albino rabbits JW/CSK; test: Test for daily administration to rabbit (platelet count); conditions: 200 μg/kg subcutaneously daily
# Procedure: Six 12-15 week old male Japanese albino rabbits JW/CSK were used in the experiment. The animals were individually kept in aluminum rabbit bracket cages Rb-1 (350^w×500^d×350^h mm) in a vavarium in a specific pathogen-free environment under the following conditions: temperature, 24±2° C.; humidity, 50±10%; illumination, light turned on at 5:00 and turned off at 19:00; ventilation, 15 changes/hr. Each animal was supplied with 120 g of a radiation-sterilized feed for rabbits RM (purchased from Funahashi Farm) per day. The animals were also allowed to drink to tap water ad libitum from an automatic water feeder.
# Human PTH(1-84) was administered in a volume of 2 mL/vial at a concentration of 200 μg/mL. A solvent was also supplied in a volume of 2 mL/vial. Both the drug and the control were stored at −135° C. until use.
# PTH (200 μg/kg) was administered to the rabbits subcutaneously at the back of their neck for 13 consecutive days. The solvent was similarly administered in the same volume as the dose of a rh-PTH solution calculated from their body weight.
# Blood samples (0.5 mL) were withdrawn from the rabbits through the lateral auricular vein before the administration and on days 2, 6, 9 and 13 during the administration period. […]
molecule,measurement,setting,value
B1,platelet increasing action,[1],platelet increasing action
same,platelet counts over the control,[2]; 6 h after the administration,significant increase
same,platelet counts over the control,[2]; 9 h after the administration,significant increase
same,platelet count,[3]; 200 μg/kg subcutaneously once a day,tendency to increase
same,platelet count,[3]; 800 μg/kg subcutaneously once a day,tendency to increase
same,platelet count versus the control,"[3]; all treated groups (50, 200, 800 μg/kg subcutaneously once a day), day 7",significantly higher
same,platelet count relative to the initial level,[4]; day 13,substantially returned to the initial level
same,platelet count relative to the initial value,[4]; increase from day 2 until day 6,two to four
